Laboratory results reported in patent publication US20260285997 (published 2026).
Residue numbers refer to the chain shown, from its start. Blank lines part the entries; values can stand above or below the binder they belong to.

Target: T1, FLAG tag antigen
T1 chain: DYKDDDDK
Experiment: SPR

Kd: 15 nM
B1: V7 scFv (anti-FLAG) (antibody)
chain: DVVMTQSPDSLAVSLGERATINCKSSQSIVHRNGNTYLEWYQLKPGQPPKLLIYKVSNRFSGVPDRFSGSGSGTDFTLTISSLQAEDVAVYYCFQGSHVPYTFGGGTKLEIKGGGGSGGGGSGGGGSQVQLVQSGAEVKKPGASVKVSCKASGYSFTTYTMHWVRQAPGQGLEWMGYINPSSGYAAYNQKFQGRVTMTADKSTSTAYMELSSLRSEDTAVYYCAREKFYGYDYWGQGTTVTVSS

Kd: 22 nM
B2: V4 scFv (anti-FLAG) (antibody)
chain: B1 chain with L43Q, M161I, M175I, M197L
